This is an account of results in patent US20210130437A1 (ALPINE IMMUNE SCIENCES, published 2021).

The target of assay [1] is T1, human PD-1 expressed on cells (Jurkat/PD-1 cells) (human, UniProt Q15116 21-288).
T1 construct: also called PDCD1
In words: flow cytometry, Jurkat/PD-1 cells.

For assay [2], the target named is T2, human TIGIT expressed on cells (Jurkat/TIGIT cells) (human, UniProt Q495A1 22-244).
T2 sequence: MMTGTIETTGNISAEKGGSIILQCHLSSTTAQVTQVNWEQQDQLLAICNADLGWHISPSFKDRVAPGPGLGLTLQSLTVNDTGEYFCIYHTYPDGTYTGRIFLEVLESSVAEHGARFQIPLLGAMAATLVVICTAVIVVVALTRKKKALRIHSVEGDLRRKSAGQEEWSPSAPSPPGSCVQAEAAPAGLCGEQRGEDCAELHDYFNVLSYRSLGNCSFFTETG
Nature of the assay: flow cytometry, Jurkat/TIGIT cells.

Assay [3] has as its target T3, PD-1 stably expressed on Jurkat/IL-2 reporter cells (Jurkat/PD-1) (human, UniProt Q15116 21-288).
T3 construct: also called Jurkat/PD-1 cells; PD-1+ Jurkat cells
Nature of the assay: culture supernatant on PD-1+ Jurkat cells, surface bound PD-L2 detected with anti-his-APC by flow cytometry.

T1 sequence (Q15116 21-288): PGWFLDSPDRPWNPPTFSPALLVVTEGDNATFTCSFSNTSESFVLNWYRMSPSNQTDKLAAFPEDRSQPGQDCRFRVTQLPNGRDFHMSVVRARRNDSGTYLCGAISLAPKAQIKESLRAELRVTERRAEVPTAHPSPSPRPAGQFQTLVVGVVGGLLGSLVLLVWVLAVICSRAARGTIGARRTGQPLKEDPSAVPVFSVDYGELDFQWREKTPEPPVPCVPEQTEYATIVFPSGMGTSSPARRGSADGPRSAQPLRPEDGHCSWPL
T3 sequence (Q15116 21-288): as above

B1: PD-L2/CD155 Stack 5 (Fc fusion)
chain: EPKSSDKTHTCPPCPAPEAEGAPSVFLFPPKPKDTLMISRTPEVTCVVVDVSHEDPEVKFNWYVDGVEVHNAKTKPREEQYNSTYRVVSVLTVLHQDWLNGKEYKCKVSNKALPAPIEKTISKAKGQPREPQVYTLPPSRDELTKNQVSLTCLVKGFYPSDIAVEWESNGQPENNYKTTPPVLDSDGSFFLYSKLTVDKSRWQQGNVFSCSVMHEALHNHYTQKSLSLSPGKGGGGSGGGGSGGGGSWPPPGTGDVVVQAPTQVSGFLGDSVTLPCYLQVPNMEVTHVSQLTWARHGESGSMAVFHQTQGPWYAESKRLEFVAARLGAELRNASLRMFGLRVEDEGNYTCQFVTFPQRSRSVDIWLRVLGGGGSGGGGSGGGGSLFTVTVPKELYIIEQGSNVTLECNFDTGSHVNLGAITASLQKVENDASPHRERATLLEEQLPLGRALFHIPQVQVRDEGQYRCIIIYGDAWDYKYLTLKVKA
notes: Homodimer; also called Fc (G4S)3 (CD155 IgV) (G4S)3 (PD-L2 IgV)
For the molecule B1, the “MFI at 6.25 nM” value in assay [1] stood at 108 MFI; in assay [2] it was 5490 MFI.

B2: Wild Type CD155 full ECD Fc (Fc fusion)
chain: WPPPGTGDVVVQAPTQVPGFLGDSVTLPCYLQVPNMEVTHVSQLTWARHGESGSMAVFHQTQGPSYSESKRLEFVAARLGAELRNASLRMFGLRVEDEGNYTCLFVTFPQGSRSVDIWLRVLAKPQNTAEVQKVQLTGEPVPMARCVSTGGRPPAQITWHSDLGGMPNTSQVPGFLSGTVTVTSLWILVPSSQVDGKNVTCKVEHESFEKPQLLTVNLTVYYPPEVSISGYDNNWYLGQNEATLTCDARSNPEPTGYNWSTTMGPLPPFAVAQGAQLLIRPVDKPINTTLICNVTNALGARQAELTVQVKEGPPSEHSGISRN
notes: not shown: Fc and linker not specified
Take B2: the “MFI at 6.25 nM” value in assay [1] amounted to 64 MFI.

B3: PD-L2/CD155 Stack 3 (Fc fusion)
chain: WPPPGTGDVVVQAPTQVSGFLGDSVTLPCYLQVPNMEVTHVSQLTWARHGESGSMAVFHQTQGPWYAESKRLEFVAARLGAELRNASLRMFGLRVEDEGNYTCQFVTFPQRSRSVDIWLRVLGGGGSGGGGSGGGGSLFTVTVPKELYIIEQGSNVTLECNFDTGSHVNLGAITASLQKVENDASPHRERATLLEEQLPLGRALFHIPQVQVRDEGQYRCIIIYGDAWDYKYLTLKVKAGGGGSGGGGSEPKSSDKTHTCPPCPAPEAEGAPSVFLFPPKPKDTLMISRTPEVTCVVVDVSHEDPEVKFNWYVDGVEVHNAKTKPREEQYNSTYRVVSVLTVLHQDWLNGKEYKCKVSNKALPAPIEKTISKAKGQPREPQVYTLPPSRDELTKNQVSLTCLVKGFYPSDIAVEWESNGQPENNYKTTPPVLDSDGSFFLYSKLTVDKSRWQQGNVFSCSVMHEALHNHYTQKSLSLSPGK
notes: Homodimer; also called (CD155 IgV) (G4S)3 (PD-L2 IgV) (G4S)2 Fc
On to B3, for which the “MFI at 6.25 nM” value is 91 MFI in assay [1] and 22300 MFI in assay [2].

B4: PD-L2/CD155 Stack 6 (Fc fusion)
chain: EPKSSDKTHTCPPCPAPEAEGAPSVFLFPPKPKDTLMISRTPEVTCVVVDVSHEDPEVKFNWYVDGVEVHNAKTKPREEQYNSTYRVVSVLTVLHQDWLNGKEYKCKVSNKALPAPIEKTISKAKGQPREPQVYTLPPSRDELTKNQVSLTCLVKGFYPSDIAVEWESNGQPENNYKTTPPVLDSDGSFFLYSKLTVDKSRWQQGNVFSCSVMHEALHNHYTQKSLSLSPGKGGGGSGGGGSGGGGSLFTVTVPKELYIIEQGSNVTLECNFDTGSHVNLGAITASLQKVENDASPHRERATLLEEQLPLGRALFHIPQVQVRDEGQYRCIIIYGDAWDYKYLTLKVKAGGGGSGGGGSGGGGSWPPPGTGDVVVQAPTQVSGFLGDSVTLPCYLQVPNMEVTHVSQLTWARHGESGSMAVFHQTQGPWYAESKRLEFVAARLGAELRNASLRMFGLRVEDEGNYTCQFVTFPQRSRSVDIWLRVL
notes: Homodimer; also called Fc (G4S)3 (PD-L2 IgV) (G4S)3 (CD155 IgV)
For the molecule B4, the “MFI at 6.25 nM” value in assay [1] turned out to be 66 MFI; in assay [2] it was 9970 MFI.

B5: Wild Type PD-L2 full ECD Fc (Fc fusion)
chain: LFTVTVPKELYIIEHGSNVTLECNFDTGSHVNLGAITASLQKVENDTSPHRERATLLEEQLPLGKASFHIPQVQVRDEGQYQCIIIYGVAWDYKYLTLKVKASYRKINTHILKVPETDEVELTCQATGYPLAEVSWPNVSVPANTSHSRTPEGLYQVTSVLRLKPPPGRNFSCVFWNTHVRELTLASIDLQSQMEPRTHPT
notes: as for B2
As to B5, the “MFI at 6.25 nM” value in assay [2] worked out at 46 MFI.

B6: PD-L2/CD155 Stack 1 (Fc fusion)
chain: WPPPGTGDVVVQAPTQVSGFLGDSVTLPCYLQVPNMEVTHVSQLTWARHGESGSMAVFHQTQGPWYAESKRLEFVAARLGAELRNASLRMFGLRVEDEGNYTCQFVTFPQRSRSVDIWLRVLGGGGSGGGGSEPKSSDKTHTCPPCPAPEAEGAPSVFLFPPKPKDTLMISRTPEVTCVVVDVSHEDPEVKFNWYVDGVEVHNAKTKPREEQYNSTYRVVSVLTVLHQDWLNGKEYKCKVSNKALPAPIEKTISKAKGQPREPQVYTLPPSRDELTKNQVSLTCLVKGFYPSDIAVEWESNGQPENNYKTTPPVLDSDGSFFLYSKLTVDKSRWQQGNVFSCSVMHEALHNHYTQKSLSLSPGKGGGGSGGGGSGGGGSLFTVTVPKELYIIEQGSNVTLECNFDTGSHVNLGAITASLQKVENDASPHRERATLLEEQLPLGRALFHIPQVQVRDEGQYRCIIIYGDAWDYKYLTLKVKA
notes: Homodimer; also called (CD155 IgV)-(G4S)2-Fc-(G4S)3 (PD-L2 IgV)
As for B6, the “MFI at 6.25 nM” value in assay [2] was 19900 MFI.

B7: PD-L2 SIP with wildtype PD-L2 IgV (SEQ ID NO:115), Avitag and His tag (ligand)
chain: LFTVTVPKELYIIEHGSNVTLECNFDTGSHVNLGAITASLQKVENDTSPHRERATLLEEQLPLGKASFHIPQVQVRDEGQYQCIIIYGVAWDYKYLTLKVKAGLNDIFEAQKIEWHEHHHHHH
notes: also called PD-L2 secreted immunomodulatory protein
Regarding B7, the binding result in assay [3] was “binds”.

B8: PD-L2 SIP with variant PD-L2 IgV H15Q,V31M,S67L,Q82R,V89D (SEQ ID NO:316), Avitag and His tag (ligand)
chain: LFTVTVPKELYIIEQGSNVTLECNFDTGSHMNLGAITASLQKVENDTSPHRERATLLEEQLPLGKALFHIPQVQVRDEGQYRCIIIYGDAWDYKYLTLKVKAGLNDIFEAQKIEWHEHHHHHH
notes: also called variant PD-L2 SIP
Regarding B8, in assay [3], the binding result is listed as “binds”.

B9: PD-L2 SIP with variant PD-L2 IgV H15Q,T47A,K65R,S67L,Q82R,V89D (SEQ ID NO:328), Avitag and His tag (ligand)
chain: LFTVTVPKELYIIEQGSNVTLECNFDTGSHVNLGAITASLQKVENDASPHRERATLLEEQLPLGRALFHIPQVQVRDEGQYRCIIIYGDAWDYKYLTLKVKAGLNDIFEAQKIEWHEHHHHHH
notes: also called variant PD-L2 SIP
As for B9, in assay [3], the binding result is “binds”.

B10: PD-L2 SIP with variant PD-L2 IgV H15Q,T47A,S67L,R76G,Q82R,V89D (SEQ ID NO:342), Avitag and His tag (ligand)
chain: LFTVTVPKELYIIEQGSNVTLECNFDTGSHVNLGAITASLQKVENDASPHRERATLLEEQLPLGKALFHIPQVQVGDEGQYRCIIIYGDAWDYKYLTLKVKAGLNDIFEAQKIEWHEHHHHHH
notes: also called variant PD-L2 SIP
Turning to B10, the binding result in assay [3] is “binds”.

B11: PD-L2/CD155 Stack 2 (Fc fusion)
chain: LFTVTVPKELYIIEQGSNVTLECNFDTGSHVNLGAITASLQKVENDASPHRERATLLEEQLPLGRALFHIPQVQVRDEGQYRCIIIYGDAWDYKYLTLKVKAGGGGSGGGGSEPKSSDKTHTCPPCPAPEAEGAPSVFLFPPKPKDTLMISRTPEVTCVVVDVSHEDPEVKFNWYVDGVEVHNAKTKPREEQYNSTYRVVSVLTVLHQDWLNGKEYKCKVSNKALPAPIEKTISKAKGQPREPQVYTLPPSRDELTKNQVSLTCLVKGFYPSDIAVEWESNGQPENNYKTTPPVLDSDGSFFLYSKLTVDKSRWQQGNVFSCSVMHEALHNHYTQKSLSLSPGKGGGGSGGGGSGGGGSWPPPGTGDVVVQAPTQVSGFLGDSVTLPCYLQVPNMEVTHVSQLTWARHGESGSMAVFHQTQGPWYAESKRLEFVAARLGAELRNASLRMFGLRVEDEGNYTCQFVTFPQRSRSVDIWLRVL
notes: Homodimer; also called (PD-L2 IgV) (G4S)2 Fc (G4S)3 (CD155 IgV)
Turning to B11, the “MFI at 6.25 nM” value in assay [1] was determined as 16300 MFI; in assay [2], 9100 MFI.

B12: PD-L2/CD155 Stack 4 (Fc fusion)
chain: LFTVTVPKELYIIEQGSNVTLECNFDTGSHVNLGAITASLQKVENDASPHRERATLLEEQLPLGRALFHIPQVQVRDEGQYRCIIIYGDAWDYKYLTLKVKAGGGGSGGGGSGGGGSWPPPGTGDVVVQAPTQVSGFLGDSVTLPCYLQVPNMEVTHVSQLTWARHGESGSMAVFHQTQGPWYAESKRLEFVAARLGAELRNASLRMFGLRVEDEGNYTCQFVTFPQRSRSVDIWLRVLGGGGSGGGGSEPKSSDKTHTCPPCPAPEAEGAPSVFLFPPKPKDTLMISRTPEVTCVVVDVSHEDPEVKFNWYVDGVEVHNAKTKPREEQYNSTYRVVSVLTVLHQDWLNGKEYKCKVSNKALPAPIEKTISKAKGQPREPQVYTLPPSRDELTKNQVSLTCLVKGFYPSDIAVEWESNGQPENNYKTTPPVLDSDGSFFLYSKLTVDKSRWQQGNVFSCSVMHEALHNHYTQKSLSLSPGK
notes: Homodimer; also called (PD-L2 IgV) (G4S)3 (CD155 IgV) (G4S)2 Fc
Consider B12, for which the “MFI at 6.25 nM” value in assay [1] turned out to be 9220 MFI; in assay [2] it was 14500 MFI.
